Source: patent US20040235115A1

B1: loop 3 chimeric microplasminogen (protein)
chain: APSFDCGKPQVEPKKCPGRVVGGCVAHPHSWPWQVSLRLNGAHFCGGTLISPEWVLTAAHCLEKSPRPSSYKVILGAHQEVNLEPHVQEIEVSRLFLEPTRKDIALLKLSSPAVITDKVIPACLPSPNYVVADRTECFITGWGETQGTFGAGLLKEAQLPVIENKVCNRYEFLNGRVQSTELCAGHLAGGTDSCQGDSGGPLVCFEKDKYILQGVTSWGLGCARPNKPGVYVRVSRFVTWIEGVMRNN
B2: loop 5 chimeric microplasminogen (protein)
chain: APSFDCGKPQVEPKKCPGRVVGGCVAHPHSWPWQVSLRTRFGMHFCGGTLISPEWVLTAAHCLEDAADGKVKVILGAHQEVNLEPHVQEIEVSRLFLEPTRKDIALLKLSSPAVITDKVIPACLPSPNYVVADRTECFITGWGETQGTFGAGLLKEAQLPVIENKVCNRYEFLNGRVQSTELCAGHLAGGTDSCQGDSGGPLVCFEKDKYILQGVTSWGLGCARPNKPGVYVRVSRFVTWIEGVMRNN
B3: loop 7 chimeric microplasminogen (protein)
chain: APSFDCGKPQVEPKKCPGRVVGGCVAHPHSWPWQVSLRTRFGMHFCGGTLISPEWVLTAAHCLEKSPRPSSYKVILGAHQEVNLEPHVQEIEVSRLFLHPDSQPDTIDHDIALLKLSSPAVITDKVIPACLPSPNYVVADRTECFITGWGETQGTFGAGLLKEAQLPVIENKVCNRYEFLNGRVQSTELCAGHLAGGTDSCQGDSGGPLVCFEKDKYILQGVTSWGLGCARPNKPGVYVRVSRFVTWIEGVMRNN

Biological target: T1, streptokinase, P00779
T1 chain: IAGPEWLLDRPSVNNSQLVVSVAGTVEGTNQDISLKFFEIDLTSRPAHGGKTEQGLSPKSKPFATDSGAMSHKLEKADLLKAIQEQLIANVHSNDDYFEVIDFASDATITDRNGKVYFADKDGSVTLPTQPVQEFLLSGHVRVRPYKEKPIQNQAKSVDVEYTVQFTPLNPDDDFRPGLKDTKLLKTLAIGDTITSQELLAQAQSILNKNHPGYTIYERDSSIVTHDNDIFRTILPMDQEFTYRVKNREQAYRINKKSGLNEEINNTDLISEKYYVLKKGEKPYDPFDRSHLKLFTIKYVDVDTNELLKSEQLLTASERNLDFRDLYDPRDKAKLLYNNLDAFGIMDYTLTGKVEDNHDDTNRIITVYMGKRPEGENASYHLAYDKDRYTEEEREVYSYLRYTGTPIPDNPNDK

Protein | activation of microplasminogen by streptokinase (S2251 cleavage, A405)
B1 | all three loop mutants were not efficiently activated by the bacterial plasminogen activator streptokinase
B2 | all three loop mutants were not efficiently activated by the bacterial plasminogen activator streptokinase
B3 | all three loop mutants were not efficiently activated by the bacterial plasminogen activator streptokinase
